From publication PMC3141782 (2011) come the findings set out here.

In the assay the target is luteinizing hormone receptor (LHR) (Homo sapiens, UniProt P22888). Description: [125I]-hCG binding to transfected SKOV-3 cells.
Sequence of luteinizing hormone receptor (LHR) (P22888 27-699): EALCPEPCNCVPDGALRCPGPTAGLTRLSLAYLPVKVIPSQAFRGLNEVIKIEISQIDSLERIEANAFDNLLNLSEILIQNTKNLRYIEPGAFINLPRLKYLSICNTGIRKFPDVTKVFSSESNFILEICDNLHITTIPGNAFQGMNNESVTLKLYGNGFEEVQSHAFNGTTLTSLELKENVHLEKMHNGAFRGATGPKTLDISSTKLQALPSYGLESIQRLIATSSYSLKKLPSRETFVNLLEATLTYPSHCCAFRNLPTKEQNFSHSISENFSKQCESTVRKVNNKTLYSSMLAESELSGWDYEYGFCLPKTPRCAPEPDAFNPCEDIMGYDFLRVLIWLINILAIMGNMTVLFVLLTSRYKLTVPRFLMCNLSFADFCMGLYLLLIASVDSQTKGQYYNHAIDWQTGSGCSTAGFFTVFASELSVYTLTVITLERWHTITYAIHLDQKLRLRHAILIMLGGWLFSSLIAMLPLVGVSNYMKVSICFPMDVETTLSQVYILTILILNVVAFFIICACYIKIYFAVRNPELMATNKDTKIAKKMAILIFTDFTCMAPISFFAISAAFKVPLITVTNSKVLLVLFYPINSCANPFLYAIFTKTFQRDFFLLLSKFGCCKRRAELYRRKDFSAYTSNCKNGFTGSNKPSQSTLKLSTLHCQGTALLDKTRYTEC

B1: human chorionic gonadotropin (protein)
chain 1: not shown
chain 2: SKEPLRPRCRPINATLAVEKEGCPVCITVNTTICAGYCPTMTRVLQGVLPALPQVVCNYRDVRFESIRLPGCPRGVNPVVSYAVALSCQCALCRRSTTDCGGPKDHPLTCDDPRFQDSSSSKAPPPSLPSPSRLPGPSDTPILPQ
modifications: 125I-labelled hCG
On to B1, for which the dissociation constant Kd turned out to be 0.3 nM.
